± gives the uncertainty stated by the source.
B1: 1-phosphatidylinositol 4,5-bisphosphate phosphodiesterase gamma-2, residues 772 to 827; numbered along this chain, P16885 (parent)
chain: RTVKALYDYKAKRSDELSFCRGALIHNVSKEPGGWWKGDYGTRIQQYFPSNYVEDI

Variants of: B1
Experiment: abundance fitness (aPCA) (normalised: wild type 0, dead -1); higher = more abundant; growth selection in yeast, the domain comes from the species named
Details: Homo sapiens

| Variant | abundance fitness |
| --- | --- |
| RTVKALYDYKAKRSDEISFCRGALIHNVSKEPGGWWKGDYGTRIQQYFPSNYVEDI [L17I] | -0.154 ± 0.35 |
| RTVKALYDYKAKRSDEQSFCRGALIHNVSKEPGGWWKGDYGTRIQQYFPSNYVEDI [L17Q] | -0.903 ± 0.11 |
| RTVKALYDYKAKRSDEASFCRGALIHNVSKEPGGWWKGDYGTRIQQYFPSNYVEDI [L17A] | -0.922 ± 0.28 |
| RTVKALYDYKAKRSDETSFCRGALIHNVSKEPGGWWKGDYGTRIQQYFPSNYVEDI [L17T] | -0.788 ± 0.43 |
| RTVKALYDYKAKRSDEGSFCRGALIHNVSKEPGGWWKGDYGTRIQQYFPSNYVEDI [L17G] | -1 ± 0.44 |
| RTVKALYDYKAKRSDERSFCRGALIHNVSKEPGGWWKGDYGTRIQQYFPSNYVEDI [L17R] | -0.945 ± 0.28 |
| RTVKALYDYKAKRSDEMSFCRGALIHNVSKEPGGWWKGDYGTRIQQYFPSNYVEDI [L17M] | 0.012 ± 0.093 |
| RTVKALYDYKAKRSDEWSFCRGALIHNVSKEPGGWWKGDYGTRIQQYFPSNYVEDI [L17W] | -0.884 ± 0.36 |
| RTVKALYDYKAKRSDEVSFCRGALIHNVSKEPGGWWKGDYGTRIQQYFPSNYVEDI [L17V] | -0.41 ± 0.14 |
| RTVKALYDYKAKRSDEFSFCRGALIHNVSKEPGGWWKGDYGTRIQQYFPSNYVEDI [L17F] | -0.492 ± 0.25 |
| RTVKALYDYKAKRSDEESFCRGALIHNVSKEPGGWWKGDYGTRIQQYFPSNYVEDI [L17E] | -0.81 ± 0.42 |
| RTVKALYDYKAKRSGELSFCRGALIHNVSKEPGGWWKGDYGTRIQQYFPSNYVEDI [D15G] | -0.047 ± 0.078 |
| RTVKALYDYKAKRSIELSFCRGALIHNVSKEPGGWWKGDYGTRIQQYFPSNYVEDI [D15I] | -0.027 ± 0.19 |
| RTVKALYDYKAKRSYELSFCRGALIHNVSKEPGGWWKGDYGTRIQQYFPSNYVEDI [D15Y] | -0.254 ± 0.15 |
| RTVKALYDYKAKRSSELSFCRGALIHNVSKEPGGWWKGDYGTRIQQYFPSNYVEDI [D15S] | 0.006 ± 0.058 |
| RTVKALYDYKAKRSTELSFCRGALIHNVSKEPGGWWKGDYGTRIQQYFPSNYVEDI [D15T] | 0.178 ± 0.1 |
| RTVKALYDYKAKRSNELSFCRGALIHNVSKEPGGWWKGDYGTRIQQYFPSNYVEDI [D15N] | -0.048 ± 0.087 |
| RTVKALYDYKAKRSRELSFCRGALIHNVSKEPGGWWKGDYGTRIQQYFPSNYVEDI [D15R] | -0.427 ± 0.1 |
| RTVKALYDYKAKRSVELSFCRGALIHNVSKEPGGWWKGDYGTRIQQYFPSNYVEDI [D15V] | -0.041 ± 0.042 |
| RTVKALYDYKAKRSPELSFCRGALIHNVSKEPGGWWKGDYGTRIQQYFPSNYVEDI [D15P] | -0.879 ± 0.15 |
| RTVKALYDYKAKRSMELSFCRGALIHNVSKEPGGWWKGDYGTRIQQYFPSNYVEDI [D15M] | 0.185 ± 0.11 |
| RTVKALYDYKAKRSLELSFCRGALIHNVSKEPGGWWKGDYGTRIQQYFPSNYVEDI [D15L] | -0.37 ± 0.069 |
| RTVKALYDYKAKRSKELSFCRGALIHNVSKEPGGWWKGDYGTRIQQYFPSNYVEDI [D15K] | -0.503 ± 0.14 |
| RTVKALYDYKAKRSQELSFCRGALIHNVSKEPGGWWKGDYGTRIQQYFPSNYVEDI [D15Q] | -0.214 ± 0.18 |

| Variant | abundance fitness |
| --- | --- |
| RTVKALYDYKAKRSHELSFCRGALIHNVSKEPGGWWKGDYGTRIQQYFPSNYVEDI [D15H] | -0.362 ± 0.33 |
| RTVKALYDYKAKRSDELDFCRGALIHNVSKEPGGWWKGDYGTRIQQYFPSNYVEDI [S18D] | -0.201 ± 0.21 |
| RTVKALYDYKAKRSDELPFCRGALIHNVSKEPGGWWKGDYGTRIQQYFPSNYVEDI [S18P] | -0.907 ± 0.16 |
| RTVKALYDYKAKRSDELLFCRGALIHNVSKEPGGWWKGDYGTRIQQYFPSNYVEDI [S18L] | -0.987 ± 0.32 |
| RTVKALYDYKAKRSDELRFCRGALIHNVSKEPGGWWKGDYGTRIQQYFPSNYVEDI [S18R] | -0.936 ± 0.12 |
| RTVKALYDYKAKRSDELFFCRGALIHNVSKEPGGWWKGDYGTRIQQYFPSNYVEDI [S18F] | -0.927 ± 0.094 |
| RTVKALYDYKAKRSDELAFCRGALIHNVSKEPGGWWKGDYGTRIQQYFPSNYVEDI [S18A] | -0.862 ± 0.22 |
| RTVKALYDYKAKRSDELNFCRGALIHNVSKEPGGWWKGDYGTRIQQYFPSNYVEDI [S18N] | -0.619 ± 0.15 |
| RTVKALYDYKAKRSDELEFCRGALIHNVSKEPGGWWKGDYGTRIQQYFPSNYVEDI [S18E] | 0.018 ± 0.11 |
| RTVKALYDYKAKRSDELGFCRGALIHNVSKEPGGWWKGDYGTRIQQYFPSNYVEDI [S18G] | -0.679 ± 0.15 |
| RTVKALYDYKAKRSDELCFCRGALIHNVSKEPGGWWKGDYGTRIQQYFPSNYVEDI [S18C] | -0.512 ± 0.5 |
| RTVKALYDYKAKRSDELTFCRGALIHNVSKEPGGWWKGDYGTRIQQYFPSNYVEDI [S18T] | -0.187 ± 0.25 |
| RTVKALYDYKAKRSDELVFCRGALIHNVSKEPGGWWKGDYGTRIQQYFPSNYVEDI [S18V] | -0.914 ± 0.24 |
| RTVKALYDYKAKRSDELSFHRGALIHNVSKEPGGWWKGDYGTRIQQYFPSNYVEDI [C20H] | 0.151 ± 0.14 |
| RTVKALYDYKAKRSDELSFDRGALIHNVSKEPGGWWKGDYGTRIQQYFPSNYVEDI [C20D] | -0.095 ± 0.1 |
| RTVKALYDYKAKRSDELSFKRGALIHNVSKEPGGWWKGDYGTRIQQYFPSNYVEDI [C20K] | 0.002 ± 0.11 |
| RTVKALYDYKAKRSDELSFLRGALIHNVSKEPGGWWKGDYGTRIQQYFPSNYVEDI [C20L] | -0.116 ± 0.081 |
| RTVKALYDYKAKRSDELSFMRGALIHNVSKEPGGWWKGDYGTRIQQYFPSNYVEDI [C20M] | -0.063 ± 0.073 |
| RTVKALYDYKAKRSDELSFIRGALIHNVSKEPGGWWKGDYGTRIQQYFPSNYVEDI [C20I] | -0.216 ± 0.15 |
| RTVKALYDYKAKRSDELSFTRGALIHNVSKEPGGWWKGDYGTRIQQYFPSNYVEDI [C20T] | -0.012 ± 0.083 |
| RTVKALYDYKAKRSDELSFPRGALIHNVSKEPGGWWKGDYGTRIQQYFPSNYVEDI [C20P] | 0.209 ± 0.085 |
| RTVKALYDYKAKRSDELSFGRGALIHNVSKEPGGWWKGDYGTRIQQYFPSNYVEDI [C20G] | -0.059 ± 0.057 |
| RTVKALYDYKAKRSDELSFQRGALIHNVSKEPGGWWKGDYGTRIQQYFPSNYVEDI [C20Q] | -0.143 ± 0.1 |
